Source: patent publication US20060257938A1, “Method of screening for drugs that block ligand binding to a lipid binding protein” (priority 2005, published 2006)
Substitutions are numbered along the chain they refer to. Where “and” joins values, the source holds several entries; their conditions need not be identical. Equal entries are not always repeated.

B1: 60F, 72A (protein, listed as Rattus norvegicus)
chain: AFDGTWKVDRNENYEKFMEKMGINVVKRKLGAHDNLKLTITQEGNKFTVKESSNFRNIDFVFELGVDFAYSAADGTELTGTWTMEGNKLVGKFKRVDNGKELIAVREISGNELIQTYTYEGVEAKRIFKKE
modifications: PEPTIDE (1)...(131) wild-type rat intestinal fatty acid binding protein
B2: 60I, 72A (protein, listed as Rattus norvegicus)
chain: B1 chain with F60I
modifications: PEPTIDE (1)...(131) wild-type rat intestinal fatty acid binding protein
B3: 60T, 72A (protein, listed as Rattus norvegicus)
chain: B1 chain with F60T
modifications: PEPTIDE (1)...(131) wild-type rat intestinal fatty acid binding protein
B4: 60H, 72A (protein, listed as Rattus norvegicus)
chain: B1 chain with F60H
modifications: PEPTIDE (1)...(131) wild-type rat intestinal fatty acid binding protein
B5: 62I, 72A (protein, listed as Rattus norvegicus)
chain: B1 chain with F60V, F62I
modifications: PEPTIDE (1)...(131) wild-type rat intestinal fatty acid binding protein
B6: 60N, 72A (protein, listed as Rattus norvegicus)
chain: B1 chain with F60N
modifications: PEPTIDE (1)...(131) wild-type rat intestinal fatty acid binding protein
B7: 60R, 72A (protein, listed as Rattus norvegicus)
chain: B1 chain with F60R
modifications: PEPTIDE (1)...(131) wild-type rat intestinal fatty acid binding protein
B8: 62N, 72A (protein, listed as Rattus norvegicus)
chain: B1 chain with F60V, F62N
modifications: PEPTIDE (1)...(131) wild-type rat intestinal fatty acid binding protein
B9: 60M, 72A (protein, listed as Rattus norvegicus)
chain: B1 chain with F60M
modifications: PEPTIDE (1)...(131) wild-type rat intestinal fatty acid binding protein
B10: 60P, 72A (protein, listed as Rattus norvegicus)
chain: B1 chain with F60P
modifications: PEPTIDE (1)...(131) wild-type rat intestinal fatty acid binding protein
B11: 62H, 72A (protein, listed as Rattus norvegicus)
chain: B1 chain with F60V, F62H
modifications: PEPTIDE (1)...(131) wild-type rat intestinal fatty acid binding protein
B12: 62G, 72A (protein, listed as Rattus norvegicus)
chain: B1 chain with F60V, F62G
modifications: PEPTIDE (1)...(131) wild-type rat intestinal fatty acid binding protein
B13: 60S, 72A (protein, listed as Rattus norvegicus)
chain: B1 chain with F60S
modifications: PEPTIDE (1)...(131) wild-type rat intestinal fatty acid binding protein
B14: 62E, 72A (protein, listed as Rattus norvegicus)
chain: B1 chain with F60V, F62E
modifications: PEPTIDE (1)...(131) wild-type rat intestinal fatty acid binding protein
B15: 60L, 72A (protein, listed as Rattus norvegicus)
chain: B1 chain with F60L
modifications: PEPTIDE (1)...(131) wild-type rat intestinal fatty acid binding protein
B16: 62C, 72A (protein, listed as Rattus norvegicus)
chain: B1 chain with F60V, F62C
modifications: PEPTIDE (1)...(131) wild-type rat intestinal fatty acid binding protein
B17: 60Q, 72A (protein, listed as Rattus norvegicus)
chain: B1 chain with F60Q
modifications: PEPTIDE (1)...(131) wild-type rat intestinal fatty acid binding protein
B18: 62T, 72A (protein, listed as Rattus norvegicus)
chain: B1 chain with F60V, F62T
modifications: PEPTIDE (1)...(131) wild-type rat intestinal fatty acid binding protein
B19: 62A, 72A (protein, listed as Rattus norvegicus)
chain: B1 chain with F60V, F62A
modifications: PEPTIDE (1)...(131) wild-type rat intestinal fatty acid binding protein
B20: 60W, 72A (protein, listed as Rattus norvegicus)
chain: B1 chain with F60W
modifications: PEPTIDE (1)...(131) wild-type rat intestinal fatty acid binding protein
B21: 60K, 72A (protein, listed as Rattus norvegicus)
chain: B1 chain with F60K
modifications: PEPTIDE (1)...(131) wild-type rat intestinal fatty acid binding protein
B22: 62D, 72A (protein, listed as Rattus norvegicus)
chain: B1 chain with F60V, F62D
modifications: PEPTIDE (1)...(131) wild-type rat intestinal fatty acid binding protein
B23: 60G, 72A (protein, listed as Rattus norvegicus)
chain: B1 chain with F60G
modifications: PEPTIDE (1)...(131) wild-type rat intestinal fatty acid binding protein

Assay: Probe fluorescence ratio response to palmitic acid relative to ADIFAB2
Format: binding
Settings: response relative to ADIFAB2
How it was run: (§1)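 Each fatty acid's response was expressed relative to ADIFAB2, the rI-FABP-L72A probe, as ΔR/ΔRreference. ΔR is the change in the background-corrected two-wavelength intensity ratio R=Fλ1/Fλ2 from its analyte-free baseline R0. Emission was read near about 420-480 nm for unbound and about 495-580 nm for FFA-bound probe.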

In the case of B1, the “DR/DR PA” value is reported as 1.53 and 1.526.
With B15 the “DR/DR PA” value was 1.10 and 1.095.
In the case of B20, the “DR/DR PA” value is reported as 0.59 and 0.595.
For B21, the “DR/DR PA” value was 0.35 and 0.310.
In the case of B22, the “DR/DR PA” value is reported as 1.39 and 1.385.

Point of comparison: B13, “DR/DR PA” value 0.59. Against it:
- B2 — higher, 1.52
- B3 — higher, 1.49
- B4 — lower, 0.12
- B5 — higher, 1.27
- B6 — higher, 1.30
- B7 — lower, 0.08
- B8 — higher, 1.29
- B9 — higher, 0.76
- B10 — lower, 0.37
- B11 — higher, 1.24
- B12 — higher, 1.26
- B14 — higher, 1.40
- B16 — higher, 1.18
- B17 — lower, 0.35
- B18 — higher, 0.65
- B19 — lower, 0.57
- B23 — lower, 0.19

Assay: Probe fluorescence ratio response to oleic acid relative to ADIFAB2
Format: binding
Settings: response relative to ADIFAB2
How it was run: as §1

In the case of B1, the “DR/DR OA” value is reported as 1.90 and 1.896.
For B2, the “DR/DR OA” value was 1.72 and 1.723.
In the case of B15, the “DR/DR OA” value is reported as 1.27 and 1.272.
In the case of B20, the “DR/DR OA” value is reported as 0.76 and 0.763.
With B21 the “DR/DR OA” value was 0.60 and 0.626.
In the case of B22, the “DR/DR OA” value is reported as 1.57 and 1.574.

Point of comparison: B19, “DR/DR OA” value 0.86. Against it:
- B3 — higher, 1.76
- B4 — lower, 0.17
- B5 — higher, 1.37
- B6 — higher, 1.54
- B7 — lower, 0.13
- B8 — higher, 1.37
- B9 — higher, 0.91
- B10 — lower, 0.81
- B11 — higher, 1.40
- B12 — higher, 1.46
- B13 — lower, 0.67
- B14 — higher, 1.52
- B16 — higher, 1.29
- B17 — lower, 0.41
- B18 — higher, 1.00
- B23 — lower, 0.24

Assay: Probe fluorescence ratio response to linolenic acid relative to ADIFAB2
Format: binding
Settings: response relative to ADIFAB2
How it was run: as §1

With B1 the “DR/DR LNA” value was 1.76 and 1.762.
With B2 the “DR/DR LNA” value was 1.63 and 1.632.
With B20 the “DR/DR LNA” value was 0.74 and 0.739.
With B21 the “DR/DR LNA” value was 0.57 and 0.582.
In the case of B22, the “DR/DR LNA” value is reported as 1.58 and 1.576.

Point of comparison: B17, “DR/DR LNA” value 0.42. Against it:
- B3 — higher, 1.73
- B4 — lower, 0.18
- B5 — higher, 1.38
- B6 — higher, 1.59
- B7 — lower, 0.14
- B8 — higher, 1.40
- B9 — higher, 0.93
- B10 — higher, 0.77
- B11 — higher, 1.44
- B12 — higher, 1.44
- B13 — higher, 0.71
- B14 — higher, 1.52
- B15 — higher, 1.26
- B16 — higher, 1.31
- B18 — higher, 0.96
- B19 — higher, 1.08
- B23 — lower, 0.24

Assay: Probe fluorescence ratio response to arachidonic acid relative to ADIFAB2
Format: binding
Settings: Arachidonic acid; response relative to ADIFAB2
How it was run: as §1

Point of comparison: B7, “DR/DR AA” value 0.14. Against it:
- B1 — higher, 1.79
- B2 — higher, 1.54
- B3 — higher, 1.72
- B4 — higher, 0.17
- B5 — higher, 1.40
- B6 — higher, 1.24
- B8 — higher, 1.40
- B9 — higher, 0.77
- B10 — higher, 0.62
- B11 — higher, 1.42
- B12 — higher, 1.43
- B13 — higher, 0.56
- B14 — higher, 1.48
- B15 — higher, 1.08
- B16 — higher, 1.30
- B17 — higher, 0.36
- B18 — higher, 0.99
- B19 — higher, 1.08
- B20 — higher, 0.67
- B21 — higher, 0.46
- B22 — higher, 1.49
- B23 — higher, 0.29

Same assay, conditions: arachidonic acid; response relative to ADIFAB2

Point of comparison: B1, “DR/DR AA” value 1.792. Against it:
- B2 — lower, 1.539
- B15 — lower, 1.075
- B20 — lower, 0.670
- B21 — lower, 0.461
- B22 — lower, 1.485

Assay: Probe fluorescence ratio response to linoleic acid relative to ADIFAB2
Format: binding
Settings: response relative to ADIFAB2
How it was run: as §1

With B1 the “DR/DR LA” value was 1.68 and 1.684.
In the case of B15, the “DR/DR LA” value is reported as 1.29 and 1.285.
In the case of B20, the “DR/DR LA” value is reported as 0.84 and 0.837.
For B21, the “DR/DR LA” value was 0.62 and 0.619.
With B22 the “DR/DR LA” value was 1.60 and 1.598.

Point of comparison: B6, “DR/DR LA” value 1.57. Against it:
- B2 — higher, 1.73
- B3 — higher, 1.73
- B4 — lower, 0.17
- B5 — lower, 1.36
- B7 — lower, 0.12
- B8 — lower, 1.34
- B9 — lower, 1.01
- B10 — lower, 0.81
- B11 — lower, 1.40
- B12 — lower, 1.44
- B13 — lower, 0.72
- B14 — lower, 1.49
- B16 — lower, 1.31
- B17 — lower, 0.41
- B18 — lower, 1.02
- B19 — lower, 0.96
- B23 — lower, 0.25
